Results published in patent US20160207996A1 (ARGEN X N V, published 2016).

T1: hNav1.7-loopB1-C1-D1-llama Fc (human)
T1 construct: whole entry: loops B1, C1, D1 joined by linkers, llama Fc; also called hNav1.7-loopB1-C1-D1-llfc
T1 chain: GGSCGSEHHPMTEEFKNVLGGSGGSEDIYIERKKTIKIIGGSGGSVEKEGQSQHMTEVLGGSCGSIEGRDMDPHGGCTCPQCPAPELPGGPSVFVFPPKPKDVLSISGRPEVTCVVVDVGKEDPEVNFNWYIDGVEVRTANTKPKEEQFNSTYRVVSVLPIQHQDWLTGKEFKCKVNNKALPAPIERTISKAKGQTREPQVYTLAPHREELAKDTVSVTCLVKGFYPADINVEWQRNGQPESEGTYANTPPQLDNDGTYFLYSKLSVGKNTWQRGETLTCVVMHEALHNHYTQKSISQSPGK

T2: hNav1.7-loopA3-llama Fc fusion (human)
T2 construct: also called hNav1.7-loopA3-llFc; loopA3-llamaFc chimera
T2 chain: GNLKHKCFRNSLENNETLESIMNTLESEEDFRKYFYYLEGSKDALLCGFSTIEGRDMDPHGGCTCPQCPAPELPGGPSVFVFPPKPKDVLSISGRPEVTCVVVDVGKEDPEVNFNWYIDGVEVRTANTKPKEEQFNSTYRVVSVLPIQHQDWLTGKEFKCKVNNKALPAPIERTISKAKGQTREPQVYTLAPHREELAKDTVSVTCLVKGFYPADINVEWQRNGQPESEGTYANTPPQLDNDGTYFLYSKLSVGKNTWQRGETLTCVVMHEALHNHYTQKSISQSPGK

T3: hNav1.7-loopC3-llama Fc (human)
T3 construct: whole entry: loop C3, linker, llama Fc; also called hNav1.7-loopC3-llfc
T3 chain: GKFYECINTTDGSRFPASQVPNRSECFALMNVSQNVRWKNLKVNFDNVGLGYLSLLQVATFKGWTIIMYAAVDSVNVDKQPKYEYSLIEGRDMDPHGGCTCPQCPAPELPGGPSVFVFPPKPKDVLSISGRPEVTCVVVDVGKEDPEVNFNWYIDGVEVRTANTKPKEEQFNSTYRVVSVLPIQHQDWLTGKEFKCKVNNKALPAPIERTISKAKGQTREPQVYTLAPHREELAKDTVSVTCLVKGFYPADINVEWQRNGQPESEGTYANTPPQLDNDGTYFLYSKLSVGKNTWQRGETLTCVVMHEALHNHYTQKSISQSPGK

T4: RatB1-C1-D1-llFc (rat)
T4 construct: also called rat Nav1.7 loopB1-C1-D1 llamaFc chimera
T4 chain: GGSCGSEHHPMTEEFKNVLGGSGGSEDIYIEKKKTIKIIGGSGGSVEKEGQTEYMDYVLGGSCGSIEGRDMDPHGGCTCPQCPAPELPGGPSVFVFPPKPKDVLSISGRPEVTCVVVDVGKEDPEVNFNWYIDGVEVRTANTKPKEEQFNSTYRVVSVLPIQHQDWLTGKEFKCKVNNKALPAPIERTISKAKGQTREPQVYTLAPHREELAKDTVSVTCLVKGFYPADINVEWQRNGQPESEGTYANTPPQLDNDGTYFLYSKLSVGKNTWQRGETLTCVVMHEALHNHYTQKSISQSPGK

T5: hNav1.5-B1-C1-D1-llFc (human)
T5 construct: also called Nav1.5 extracellular loop B1-C1-D1 llamaFc chimera
T5 chain: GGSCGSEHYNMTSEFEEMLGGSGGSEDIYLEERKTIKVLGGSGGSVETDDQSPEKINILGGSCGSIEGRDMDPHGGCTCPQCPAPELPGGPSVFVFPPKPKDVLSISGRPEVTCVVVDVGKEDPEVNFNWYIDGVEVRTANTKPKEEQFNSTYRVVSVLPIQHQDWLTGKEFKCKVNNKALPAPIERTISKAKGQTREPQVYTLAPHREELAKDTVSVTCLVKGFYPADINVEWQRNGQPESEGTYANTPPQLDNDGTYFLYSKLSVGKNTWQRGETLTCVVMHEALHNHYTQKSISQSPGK

T6: hNav1.5-loopA3-llFc (human)
T6 construct: also called Nav1.5 extracellular loop A3 llamaFc chimera
T6 chain: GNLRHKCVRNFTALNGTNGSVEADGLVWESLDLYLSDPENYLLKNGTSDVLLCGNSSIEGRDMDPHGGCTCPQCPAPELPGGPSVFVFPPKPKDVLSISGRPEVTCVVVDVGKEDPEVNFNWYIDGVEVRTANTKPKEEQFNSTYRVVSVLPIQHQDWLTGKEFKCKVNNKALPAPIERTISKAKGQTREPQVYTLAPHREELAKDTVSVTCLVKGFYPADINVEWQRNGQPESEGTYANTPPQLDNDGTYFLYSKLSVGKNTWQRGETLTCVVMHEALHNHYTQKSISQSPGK

T7: ratA3-llFc (rat)
T7 construct: also called rat Nav1.7 loopA3 llamaFc chimera
T7 chain: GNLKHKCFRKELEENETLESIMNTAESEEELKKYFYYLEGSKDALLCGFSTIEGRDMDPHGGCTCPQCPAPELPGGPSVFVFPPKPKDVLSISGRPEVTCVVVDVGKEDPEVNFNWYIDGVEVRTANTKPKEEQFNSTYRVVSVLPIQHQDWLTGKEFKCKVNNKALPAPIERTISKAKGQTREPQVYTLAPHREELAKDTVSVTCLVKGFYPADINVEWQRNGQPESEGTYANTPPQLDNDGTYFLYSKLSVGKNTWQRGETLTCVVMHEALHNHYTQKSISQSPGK

B1: 9H4 (antibody, human IgG1, V domains shown)
VH: EVQLVQPGAELRNPGASVKVSCKASGYIFTSAYIDWVRQAPGQGLEWMGRIDPEDGETRYAHQFRDRVTFTADTSTSTVYAELNSLRSEDTAVYYCAITIEGFWGQGTQVTVSS
VL: ATMLTQSPGSLSVVPGESASISCKTSRSLVHSDGKTYLSWLLQKPGQSPQRLIYQVSNRGSGVPDRFTGSGSGTDFTLKISGVKAEDAGVYYCAQATYYPLSFGSGTRVEIK
B2: 8B6 (antibody, human IgG1, V domains shown)
VH: EVQLQESGPGLVKPSQTLSLTCTVSGGSISTSGTGWSWIRQPPGKGLEWMGIIGYDGGTYYNPSLKSRTSISRDTSKNQFSLQLTSVTPEDTAVYYCARGLGPWGQGIQVTVSS
VL: DIQMTQSPSSLSASLGDRVTITCQASQGISKYLAWYQQKPGQAPKLLIYSASRLETGVPSRFSGSGSGTTFTLVISGLEAEDAGSYYCQQYYRAPATFGQGTKVELK
B3: mAb 6D8 (antibody, IgG1, V domains shown)
VH: QLQLVESGGGLVQPGGSLRLSCAASGFTFSSNAMTWVRQAPGKGLEWVSAISSTGNSITEADSVKGRFTISRDNAKNMLYLQMNSLKPEDTAVYYCAKLGGDTWYMEYWGQGTQVTVSS
VL: SYELTQSPSVSVALRQTAKITCGGNGIGSKIVHWYQQKPGQAPVLVIYADVRRPSEIPERFSGSNSGDTATLTVSGAQAEDEADYYCQVWDSSANAAVFGGGTHLTVLG

Tests used:
[1] = target: human Nav1.7 (full length) (human) (UniProt Q15858); assay: cell-based or functional assay
[2] = target: T1, hNav1.7-loopB1-C1-D1-llama Fc; assay: ELISA, coated loop-B1-C1-D1-llama Fc 20 ng/well, mAb titrated
Experimental: mAbs originating from the loopA3-llama Fc immunization were assayed for their affinity for hNav1.7-loopA3. Therefore, a Maxisorp plate was coated with 10 ng/well of loopA3-llamaFc chimera and incubated overnight at 4° C. The next day, the plate was blocked with PBS+1% casein for 2 hours at RT. Subsequently a concentration gradient of antibodies was applied (range 0.25 pM-66 nM) for another hour. Antibody binding to loopA3 was detected using a HRP-conjugated anti-human Fc antibody (Abcam, Ab7499) (incubation 1 hour at RT, dilution 1/5000 in PBS+0.1% casein), followed by TMB addition and OD620 nm measurement. EC50 values were determined using GraphPad Prism software. For comparison purposes a known hNav1.7-loopA3 binding monoclonal antibody, UCB_932 (US2011/0135662), was tested.
(§1) In a next experiment, the binding affinity of the loop-specific mAbs was determined and compared to reference mAbs as described in US2011/0135662 (for loop A3: UCB_932, for loopB1-C1-D1: UCB_983, for loopC3: UCB_1066; US2011/0135662). Affinities were determined using an ELISA with a loop-coating of 10 ng/well (loopA3-llama Fc), 20 ng/well (loop-B1-C1-D1-llama Fc) or 50 ng/well (loopC3-llama Fc). The remainder of the experimental setup was identical to abovementioned binding ELISAs. Most of the mAbs show pM affinity for the respective hNav1.7 extracellular loop they are binding. […] The EC₅₀ for the reference mAbs could not be determined (nd) from the ELISA data available because the binding was too weak.

[3] = target: T2, hNav1.7-loopA3-llama Fc fusion; assay: binding ELISA on coated loop-llama Fc chimera (20 ng/well), OD620
Experimental: (§2) For all DNA-immunization derived mAbs the binding affinity for the various hNav1.7-loop-llama Fc chimeras was tested in a binding ELISA. Therefore, a Maxisorp plate (Nunc) was coated with 20 ng/well of hNav1.7-loopA3-llama Fc, hNav1.7-loopB1-C1-D1-llama Fc or hNav1.7-loopC3-llama Fc. Remainder of the ELISA setup is as described above. […] Only at very high concentration minor cross-reactivity is observed for some clones.

hNav1.7-loopC3-llama Fc = target: T3, hNav1.7-loopC3-llama Fc; assay: as above
Experimental: as §2

RatB1-C1-D1-llFc = target: T4, RatB1-C1-D1-llFc; assay: binding ELISA; the panel prints no target, by paragraph 562 the coated rat loop B1-C1-D1-llama Fc
hNav1.5-B1-C1-D1-llFc = target: T5, hNav1.5-B1-C1-D1-llFc; assay: binding ELISA; the panel prints no target, by paragraph 288 and paragraph 555 the coated hNav1.5 loop B1-C1-D1-llama Fc
Excerpt: (§3) The therapeutic potency of an anti-hNav1.7 antibody will highly depend on the lack of binding to other Nay family members. Of particular interest is hNav1.5, which is expressed on cardiac muscle cells. As such, cross-reactive binding of hNav1.7 antibodies to hNav1.5 could lead to heart failure. To assay the specificity of the mAbs derived from DNA immunization for hNav1.7, the corresponding loopA3 and loopB1-C1-D1 sequences of hNav1.5 were cloned as llamaFc chimera and cross-reactivity was determined using a binding ELISA (FIG. 8). All clones, except clone 9A6 and 9H4, show no cross-reactivity to hNav1.5. In addition, cross reactivity for hNav1.2 was tested for the loopA3-binding clones 8A7 and 8B6 using hNav1.2 and hNav1.7 derived monomeric, GST-tagged loopA3 peptides (Abnova, H00006326-Q01 (hNav1.2) and H00006335-Q01 (hNav1.7)). Again, no cross-reactive binding was observed.

[4] = target: T2, hNav1.7-loopA3-llama Fc fusion; assay: ELISA, coated loopA3-llama Fc 10 ng/well, mAb titrated
Experimental: as §1

hNav1.5-loopA3-llFc = target: T6, hNav1.5-loopA3-llFc; assay: binding ELISA on coated hNav1.5 loop A3-llama Fc, OD620
Excerpt: as §3

ratA3-llFc = target: T7, ratA3-llFc; assay: binding ELISA on coated rat Nav1.7 loop A3-llama Fc, OD620
[5] = target: T8, GST-tagged hNav1.2-loopA3 (human, UniProt Q99250 273-362); assay: binding ELISA on coated GST-tagged hNav1.2 loop A3 peptide, OD620
T8 construct: bought (Abnova); monomeric; also called hNav1.2 derived monomeric GST-tagged loopA3 peptide; Abnova H00006326-Q01; not shown: GST tag
T8 sequence (Q99250 273-362 limits assumed): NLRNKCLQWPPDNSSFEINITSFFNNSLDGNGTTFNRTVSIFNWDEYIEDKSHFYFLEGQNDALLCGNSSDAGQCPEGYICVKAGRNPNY
Excerpt: as §3

[6] = target: T9, GST-tagged hNav1.7-loopA3 (human, UniProt Q15858 269-339); assay: binding ELISA on coated GST-tagged hNav1.7 loop A3 peptide, OD620
T9 construct: monomeric GST-tagged peptide; also called hNav1.7-loopA3-GST; Nav1.7-loopA3-GST; not shown: GST tag
Excerpt: as §3

[7] = target: T1, hNav1.7-loopB1-C1-D1-llama Fc; assay: binding ELISA on coated loop-llama Fc chimera (20 ng/well), OD620
Experimental: as §2

Nt-GCGR-hFc = target: T10, Nt-GCGR-hFc (human, UniProt P47871 26-136); assay: mAb binding ELISA on coated Nt-GCGR-hFc
T10 construct: domain: N-terminal domain; also called Nt-GCGR-Fc; recombinant N-terminal domain of GCGR; not shown: hFc
T10 sequence (P47871 26-136): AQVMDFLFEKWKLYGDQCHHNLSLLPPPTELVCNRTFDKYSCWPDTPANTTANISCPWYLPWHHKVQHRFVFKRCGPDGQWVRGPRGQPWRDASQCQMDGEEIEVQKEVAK
Experimental: Binding to GCGR- and CXCR4-lipoparticles (negative control) (A) and binding to Nt-GCGR-hFc (B). Lipoparticles were coated at 10 U/well. Nt-GCGR was coated at 1 μg/ml. mAbs were allowed to bind to the coated target at 1 μg/ml.

Binder | % inhibition of inward current following P02 voltage protocol, 10 µg/ml [1] [%] | % inhibition of inward current following P02 voltage protocol, 25 µg/ml [1] [%] | % inhibition of inward current following P02 voltage protocol, 100 µg/ml [1] [%] | EC50 [2] [nM] | binding result [3] | binding result (hNav1.7-loopC3-llama Fc) | binding result (RatB1-C1-D1-llFc) | binding result (hNav1.5-B1-C1-D1-llFc) | EC50 [4] [nM] | binding result (hNav1.5-loopA3-llFc) | EC50 (read off the curve) (ratA3-llFc) [nM] | binding result [5] | EC50 (read off the curve) [6] [nM] | binding result [7] | binding result (Nt-GCGR-hFc)
B1 | 3.8 | 19.8 | 23.9 | 0.19 | binds | binds | binds | binds | – | – | – | – | – | – | –
B2 | 30.2 | 58.4 | 72.2 | – | – | – | – | – | 0.37 | no binding (tested: about 66 ng/ml (axis as labelled)) | ~0.6 | no binding (tested: about 130 nM) | ~0.5 | no binding (tested: about 66 nM) | –
B3 | – | – | – | – | – | – | – | – | – | – | – | – | – | – | no binding (tested: 1 µg/ml)
